Measured values from patent publication US20250277003A1.

Legend:
[1] = molecular target: SARS-CoV-2 RBD glycan-masked mutant GM14 (SARS-CoV-2) (UniProt P0DTC2); experiment: ELISA, AUC relative to RBD WT
[2] = molecular target: SARS-CoV-2 RBD glycan-masked mutant GM9 (SARS-CoV-2) (UniProt P0DTC2); experiment: ELISA, AUC relative to RBD WT

Row | Substance | %AUC [1] [%] | %AUC [2] [%]
1 | mAb C002 (antibody) | 10.2 | 51.3
2 | mAb CB6 (antibody) | 7.8 | 7.2
3 | mAb CR3022 (antibody) | 72.9 | 120
4 | mAb EY6A (antibody) | 94.5 | 115
5 | mAb S309 (antibody) | 83.4 | 114
